This is an account of results in patent US20140178935A1 (AVEO PHARMACEUTICALS, published 2014).

Where a chain is given by its changes, count along the chain named.

In assay [1] the target is T1, recombinant human HGF (R&D Systems, Catalog No. 294-HGN-025) (human, UniProt P14210 32-728).
T1 construct: Mature HGF is a disulfide-linked heterodimer of alpha and beta chain cut from one precursor; also called rhHGF (R&D Systems); rhHGF
As to the kind of experiment: competition ELISA (DELFIA): antibody inhibits biotinylated c-Met binding to plate-coated HGF. As for the experimental part: The plates then were blocked with 200 μL of 5% non-fat dry milk in PBS for 1 hour at room temperature. […] 100 μL of sample per well was transferred to the assay plate and incubated for 2 hours at room temperature. The resulting plates were washed three times with PBS-0.1% Tween 20, and incubated for 1 hour at room temperature with Eu-labeled Streptavidin (Wallac, Catalog No. 1244-360) diluted 1:1000 in DELFIA assay buffer (Wallac, Catalog No. 4002-0010). The resulting plates were washed 3 times with DELFIA wash solution (Wallac, Catalog No. 4010-0010) and incubated with 100 μL/well DELFIA enhancement solution (Wallac #4001-0010) for 15 minutes at room temperature with agitation. The plates were read on Victor³V instrument (Perkin Elmer) using the Europium method. The IC₅₀ values were calculated using Prism.
For orientation: In an ELISA, binding on a coated surface is turned into a signal by an enzyme label.

The target of assay [2] is T1, recombinant human HGF (R&D Systems, …). As to the kind of experiment: SPR, captured antibody, HGF injected, 25 C. As for the experimental part:
Mouse anti-human immunoglobulins (Jackson Labs, Catalog No. 209-005) or rabbit anti-mouse immunoglobulins (BIAcore, Catalog No. BR-1005-14) were immobilized on carboxymethylated dextran CM4 sensor chips (BIAcore, Catalog No. BR-1006-68) by amine coupling (BIAcore, Catalog No. BR-1000-50) using a standard coupling protocol according to manufacturer's instructions. […] The analyses were performed at 25° C. and 37° C. using PBS (GIBCO, Catalog No. 14040-133) containing 0.05% surfactant P20 (BIAcore, Catalog No. BR-1000-54), and 2 mg/mL BSA (EMD, Catalog No. 2930) as running buffer.
The antibodies were captured in an individual flow cell at a flow rate of […]. Injection time was variable for each antibody to yield approximately 20 RU of antibody captured for each cycle. […] The dissociation phase was monitored for 15 or 90 minutes, depending on concentration. The surface of mouse anti-human immunoglobulins sensor chips was then regenerated with 10 mM Glycine-HCl, pH 2.2 (BIAcore, Catalog No. BR-1003-54) injected for 3 minutes at a flow rate of 60 μL/min before another cycle was initiated. The surface of rabbit anti-mouse immunoglobulins sensor chips was regenerated with 10 mM Glycine-HCl, pH 1.7 (BIAcore, Catalog No. BR-1003-54) injected for 3 minutes at a flow rate of 60 μL/min before another cycle was initiated.
Kinetic parameters were determined using the kinetic function of the BIAevaluation software with reference subtraction.
For orientation: SPR reads the build-up and loss of mass on a sensor chip optically.

Assay [3] deals with T2, recombinant mhm chimeric HGF protein containing the region I499-R556 of hHGF disposed between murine sequences (mouse-human-mouse chimera, UniProt Q08048 56-728).
T2 construct: also called mhm chimera (I499-R556)
T2 chain: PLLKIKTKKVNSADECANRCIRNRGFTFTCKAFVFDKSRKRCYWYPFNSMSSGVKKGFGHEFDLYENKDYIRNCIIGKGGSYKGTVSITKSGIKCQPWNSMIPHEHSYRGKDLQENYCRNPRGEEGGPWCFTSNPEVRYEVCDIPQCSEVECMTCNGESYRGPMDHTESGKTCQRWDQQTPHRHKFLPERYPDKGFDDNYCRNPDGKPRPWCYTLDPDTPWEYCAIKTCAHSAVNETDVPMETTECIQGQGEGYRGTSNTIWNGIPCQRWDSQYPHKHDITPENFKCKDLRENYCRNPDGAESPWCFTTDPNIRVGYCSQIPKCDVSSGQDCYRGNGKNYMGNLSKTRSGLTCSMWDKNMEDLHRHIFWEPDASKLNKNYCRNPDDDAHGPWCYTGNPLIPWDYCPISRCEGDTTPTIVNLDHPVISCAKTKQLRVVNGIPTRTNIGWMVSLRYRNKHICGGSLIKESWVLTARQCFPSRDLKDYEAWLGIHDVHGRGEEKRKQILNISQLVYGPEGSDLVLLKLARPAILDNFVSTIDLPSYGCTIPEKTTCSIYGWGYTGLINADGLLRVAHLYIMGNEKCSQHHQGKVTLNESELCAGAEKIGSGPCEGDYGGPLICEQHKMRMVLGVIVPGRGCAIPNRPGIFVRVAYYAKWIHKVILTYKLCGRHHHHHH
As to the kind of experiment: SPR, antibody immobilized, HGF protein injected, 25 C. As for the experimental part:
(§1) Analyses were performed at 25° C. using PBS (GIBCO, Catalog No. 14040-133) containing 0.05% surfactant P20 (BIAcore, Catalog No. R-1000-54), 2 mg/mL BSA (EMD, Catalog No. 2930) and 10 mg/mL CM-Dextran Sodium salt (Fluka, Catalog No. 86524) as running buffer. […] The resulting binding was determined as resonance units (RU) over baseline 30 seconds after the end of injection. […] Non-specific binding was monitored by comparing binding to a control surface.

Assay [4] has as its target T3, recombinant mhm chimeric HGF protein containing human W507-L585 HGF sequence disposed within mouse HGF … (mouse-human-mouse chimera, UniProt Q08048 56-728).
T3 construct: CHO supernatant; also called mhm chimera (W507-L585); MHM chimera (507-585)
T3 chain: T2 chain with R443Q, N445T, I446V, E499D, R502C, I505V, I508V, L523M
Described as above. As for the experimental part:
as §1

T1 sequence (P14210 32-728 limits assumed): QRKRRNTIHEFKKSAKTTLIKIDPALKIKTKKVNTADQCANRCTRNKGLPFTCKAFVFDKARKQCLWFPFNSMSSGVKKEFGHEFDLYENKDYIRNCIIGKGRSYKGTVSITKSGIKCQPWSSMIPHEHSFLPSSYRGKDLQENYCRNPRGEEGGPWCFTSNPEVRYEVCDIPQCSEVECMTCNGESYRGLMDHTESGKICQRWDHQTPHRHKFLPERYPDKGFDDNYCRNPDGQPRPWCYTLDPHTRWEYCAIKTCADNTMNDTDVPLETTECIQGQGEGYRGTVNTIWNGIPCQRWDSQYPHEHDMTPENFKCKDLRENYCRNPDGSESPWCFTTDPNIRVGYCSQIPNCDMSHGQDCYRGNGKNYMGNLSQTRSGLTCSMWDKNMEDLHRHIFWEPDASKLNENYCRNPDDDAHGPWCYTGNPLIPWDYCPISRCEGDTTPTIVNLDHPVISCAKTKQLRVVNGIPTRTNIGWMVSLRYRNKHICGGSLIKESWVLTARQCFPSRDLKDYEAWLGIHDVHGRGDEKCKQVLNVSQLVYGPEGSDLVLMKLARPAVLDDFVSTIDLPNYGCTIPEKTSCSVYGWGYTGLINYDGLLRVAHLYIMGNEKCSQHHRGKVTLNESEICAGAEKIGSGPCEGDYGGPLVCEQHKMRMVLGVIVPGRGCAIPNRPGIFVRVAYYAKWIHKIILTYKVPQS

B1: HE2B8-4 (LRMR2B8HC + IgG1 constant region G1m(3) allotype allele 1, plus LRMR2B8LC + Kappa constant region Km(3) allotype allele 1) (antibody, V domains shown)
VH: QVQLVQPGAEVKKPGTSVKLSCKASGYTFTTYWMHWVRQAPGQGLEWIGEINPTNGHTNYNQKFQGRATLTVDKSTSTAYMELSSLRSEDTAVYYCARNYVGSIFDYWGQGTLLTVSS
VL: DIVMTQSPDSLAMSLGERVTLNCKASENVVSYVSWYQQKPGQSPKLLIYGASNRESGVPDRFSGSGSATDFTLTISSVQAEDVADYHCGQSYNYPYTFGQGTKLEIKR
notes: Human Engineered 2B8 variant, human IgG1 kappa, made in HEK293E cells
B1: the 50% inhibitory concentration (IC50) (usually the concentration that inhibits the measured activity by half) in assay [1] turned out to be 6.5 nM. For the same molecule, in assay [2], the Kd (usually the equilibrium constant for the complex coming apart) is 0.0056 nM; the koff (as a rule, the rate constant with which the complex falls apart) was determined as 1.2e-05 s⁻¹; the kon (usually the second-order rate constant of association) amounted to 2e+06 M⁻¹ s⁻¹. Moreover, the binding result in assay [3] is “binds”. Further, the binding result in assay [4] was “binds”.

B2: anti-hHGF monoclonal antibody 2B8 (antibody, mouse IgG1, kappa)
heavy: QVQLQQPGAELVKPGTSVKLSCKASGYTFTTYWMHWVNQRPGQGLEWIGEINPTNGHTNYNEKFKSKATLTVDKSSSTAYMQLSSLTSEDSAVYYCARNYVGSIFDYWGQGTTLTVSSAKTTPPSVYPLAPGSAAQTNSMVTLGCLVKGYFPEPVTVTWNSGSLSSGVHTFPAVLQSDLYTLSSSVTVPSSTWPSETVTCNVAHPASSTKVDKKIVPRDCGCKPCICTVPEVSSVFIFPPKPKDVLTITLTPKVTCVVVDISKDDPEVQFSWFVDDVEVHTAQTQPREEQFNSTFRSVSELPIMHQDWLNGKEFKCRVNSAAFPAPIEKTISKTKGRPKAPQVYTIPPPKEQMAKDKVSLTCMITDFFPEDITVEWQWNGQPAENYKNTQPIMDTDGSYFVYSKLNVQKSNWEAGNTFTCSVLHEGLHNHHTEKSLSHSPGK
light: NIVMTQSPKSMSMSVGERVTLSCKASENVVSYVSWYQQKPAQSPKLLIYGASNRNTGVPDRFTGSGSATDFTLTISSVRAEDLADYHCGQSYNYPYTFGGGTRLEIKRADAAPTVSIFPPSSEQLTSGGASVVCFLNNFYPKDINVKWKIDGSERQNGVLNSWTDQDSKDSTYSMSSTLTLTKDEYERHNSYTCEATHKTSTSPIVKSFNRNEC
notes: Murine IgG1 kappa from hybridoma; also called murine 2B8; mouse 2B8
For B2, the half-maximal inhibitory concentration (IC50) in assay [1] is 9.2 nM. In addition, in assay [2], the Kd came to 0.0135 nM, the koff came to 2.1e-05 s⁻¹ and the kon worked out at 1.6e+06 M⁻¹ s⁻¹. Also, the binding result in assay [3] is given as “binds”. Also, in assay [4], the binding result is on record as “binds”.
